Test results taken from publication PMC4330386 (Nucleic Acids Research, 2015).

B1: GST-Rad27 (natural protein, yeast, UniProt P26793 1-382, looked up)
chain: MGIKGLNAIISEHVPSAIRKSDIKSFFGRKVAIDASMSLYQFLIAVRQQDGGQLTNEAGETTSHLMGMFYRTLRMIDNGIKPCYVFDGKPPDLKSHELTKRSSRRVETEKKLAEATTELEKMKQERRLVKVSKEHNEEAQKLLGLMGIPYIIAPTEAEAQCAELAKKGKVYAAASEDMDTLCYRTPFLLRHLTFSEAKKEPIHEIDTELVLRGLDLTIEQFVDLCIMLGCDYCESIRGVGPVTALKLIKTHGSIEKIVEFIESGESNNTKWKIPEDWPYKQARMLFLDPEVIDGNEINLKWSPPKEKELIEYLCDDKKFSEERVKSGISRLKKGLKSGIQGRLDGFFQVVPKTKEQLAAAAKRAQENKKLNKNKNKVTKGRR

Tests used:
Experiment in all cases: cell-based or functional assay
[1] = molecular target: T1, Mus81_(Δ21–24) of Mus81_(Δ21–24)–Mms4_(Δ40N) (S. cerevisiae, UniProt Q04149 1-632, Δ21–24)
T1 sequence (looked up): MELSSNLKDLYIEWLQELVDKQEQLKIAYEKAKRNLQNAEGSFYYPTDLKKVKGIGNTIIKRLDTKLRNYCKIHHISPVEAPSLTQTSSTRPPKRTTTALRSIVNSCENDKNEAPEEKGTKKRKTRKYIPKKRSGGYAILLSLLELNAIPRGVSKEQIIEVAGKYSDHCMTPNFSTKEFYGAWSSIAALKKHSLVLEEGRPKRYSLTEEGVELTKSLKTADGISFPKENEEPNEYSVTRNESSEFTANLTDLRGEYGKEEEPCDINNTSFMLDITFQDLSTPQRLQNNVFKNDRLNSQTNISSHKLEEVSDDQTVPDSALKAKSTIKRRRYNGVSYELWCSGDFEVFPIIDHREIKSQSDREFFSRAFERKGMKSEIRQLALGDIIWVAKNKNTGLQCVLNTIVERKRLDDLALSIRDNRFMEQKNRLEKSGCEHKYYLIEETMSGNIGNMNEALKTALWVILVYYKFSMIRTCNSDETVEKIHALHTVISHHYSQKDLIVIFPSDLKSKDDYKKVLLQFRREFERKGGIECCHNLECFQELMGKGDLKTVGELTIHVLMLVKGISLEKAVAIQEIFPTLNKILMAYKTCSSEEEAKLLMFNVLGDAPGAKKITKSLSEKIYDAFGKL

[2] = molecular target: T2, Mus81_(Δ21–22) of Mus81_(Δ21–22)–Mms4_(Δ40N) (S. cerevisiae, UniProt Q04149 1-632, Δ21–22)
T2 sequence (looked up): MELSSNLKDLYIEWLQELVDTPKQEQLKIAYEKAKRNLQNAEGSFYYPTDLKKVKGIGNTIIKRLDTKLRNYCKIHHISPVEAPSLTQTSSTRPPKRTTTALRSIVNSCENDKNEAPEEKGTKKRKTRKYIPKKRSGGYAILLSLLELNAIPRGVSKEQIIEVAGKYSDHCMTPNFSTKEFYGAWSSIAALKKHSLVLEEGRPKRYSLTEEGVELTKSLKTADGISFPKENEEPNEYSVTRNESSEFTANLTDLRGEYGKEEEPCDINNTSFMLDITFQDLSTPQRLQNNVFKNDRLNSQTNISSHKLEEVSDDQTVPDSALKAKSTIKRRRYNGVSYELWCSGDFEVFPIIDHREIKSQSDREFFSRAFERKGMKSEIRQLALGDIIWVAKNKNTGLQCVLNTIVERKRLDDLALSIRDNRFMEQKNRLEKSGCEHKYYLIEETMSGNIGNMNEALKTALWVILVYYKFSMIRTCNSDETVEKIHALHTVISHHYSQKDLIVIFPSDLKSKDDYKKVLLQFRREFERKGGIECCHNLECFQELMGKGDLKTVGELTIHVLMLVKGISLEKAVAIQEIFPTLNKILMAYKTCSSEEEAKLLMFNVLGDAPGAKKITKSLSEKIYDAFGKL

GST-Rad27 = molecular target: B1

Binder: B1
- extent of stimulation by Rad27 of the endonuclease activity of Mus81_(Δ21–24)–Mms4_(Δ40N) on 3′F substrate, over increasing amounts of Rad27 (∼3–6-fold) [1]: ~6 fold
- extent of stimulation by Rad27 of the endonuclease activity of Mus81_(Δ21–22)–Mms4_(Δ40N) on 3′F substrate, over increasing amounts of Rad27 (∼5–12-fold) [2]: ~12 fold

B2: Mms4 of the wild-type Mus81–Mms4 complex (natural protein, budding yeast, UniProt P38257 1-691, looked up)
chain: MSQIVDFVEDKDSRNDASIQIIDGPSNVEIIALSESMDQDECKRAHVSSAEMIPSSPQRKSVSNDVENVDLNKSIELSAPFFQDISISKLDDFSTTVNSIIDSSLRNENNAKGNAKKLLDDLISDEWSADLESSGKKHNKSQYNLRDIAEKWGVQSLKNPEPIAVDCEYKTQGIGKTNSDISDSPKSQIGAADILFDFPLSPVKHENPTEEKHNSIANENSSPDNSLKPAGKQNHGEDGTSMAKRVYNKGEDEQEHLPKGKKRTIALSRTLINSTKLPDTVELNLSKFLDSSDSITTDVLSTPAKGSNIVRTGSQPIFSNANCFQEAKRSKTLTAEDPKCTKNTAREVSQLENYIAYGQYYTREDSKNKIRHLLKENKNAFKRVNQIYRDNIKARSQMIIEFSPSLLQLFKKGDSDLQQQLAPAVVQSSYNDSMPLLRFLRKCDSIYDFSNDFYYPCDPKIVEENVLILYYDAQEFFEQYTSQKKELYRKIRFFSKNGKHVILILSDINKLKRAIFQLENEKYKARVEQRLSGTEEALRPRSKKSSQVGKLGIKKFDLEQRLRFIDREWHVKIHTVNSHMEFINSLPNLVSLIGKQRMDPAIRYMKYAHLNVKSAQDSTETLKKTFHQIGRMPEMKANNVVSLYPSFQSLLEDIEKGRLQSDNEGKYLMTEAVEKRLYKLFTCTDPNDTIE
- stimulation of Rad27 (0.1 fmol) cleavage of 5′DF substrate by the Mus81–Mms4 complex (0, 25, 50 fmol; ∼2–4 fold told of the Mus81 complexes) (GST-Rad27): 2 to 4 fold

B3: Mms4_(Δ40N) (domain or fragment, budding yeast, UniProt P38257 41-691, looked up)
chain: ECKRAHVSSAEMIPSSPQRKSVSNDVENVDLNKSIELSAPFFQDISISKLDDFSTTVNSIIDSSLRNENNAKGNAKKLLDDLISDEWSADLESSGKKHNKSQYNLRDIAEKWGVQSLKNPEPIAVDCEYKTQGIGKTNSDISDSPKSQIGAADILFDFPLSPVKHENPTEEKHNSIANENSSPDNSLKPAGKQNHGEDGTSMAKRVYNKGEDEQEHLPKGKKRTIALSRTLINSTKLPDTVELNLSKFLDSSDSITTDVLSTPAKGSNIVRTGSQPIFSNANCFQEAKRSKTLTAEDPKCTKNTAREVSQLENYIAYGQYYTREDSKNKIRHLLKENKNAFKRVNQIYRDNIKARSQMIIEFSPSLLQLFKKGDSDLQQQLAPAVVQSSYNDSMPLLRFLRKCDSIYDFSNDFYYPCDPKIVEENVLILYYDAQEFFEQYTSQKKELYRKIRFFSKNGKHVILILSDINKLKRAIFQLENEKYKARVEQRLSGTEEALRPRSKKSSQVGKLGIKKFDLEQRLRFIDREWHVKIHTVNSHMEFINSLPNLVSLIGKQRMDPAIRYMKYAHLNVKSAQDSTETLKKTFHQIGRMPEMKANNVVSLYPSFQSLLEDIEKGRLQSDNEGKYLMTEAVEKRLYKLFTCTDPNDTIE
- stimulation of Rad27 (0.1 fmol) cleavage of 5′DF substrate by the Mus81–Mms4_(Δ40N) and Mus81_(Δ120N)–Mms4_(Δ40N) complexes (0, 25, 50 fmol; ∼2–4 fold told of the Mus81 complexes) (GST-Rad27): 2 to 4 fold
